The text below walks through data of a protein production outcome set (Wang et al. 2014).

This data set in a line: label from the status in PepcDB records.
For “MHRSTFIRTSGTSSRTLTARYRSQYTGLLVARVLFSTSTTRAQGGNPRSPLQIFRDTFKKEWEKSQELQENIKTLQDASGKLGESEAYKKAREAYLKAQRGSTIVGKTLKKTGETMEHIATKAWESELGKNTRKAAAATAKKLDESFEPVRQTKIYKEVSEVIDDGESSRYGGFITKEQRRLKRERDLASGKRHRAVKSNEDAGTAVVATNIESKESFGKKVEDFKEKTVVGRSIQSLKNKLWDESENPLIVVMRKITNKVGGFFAETESSRVYSQFKLMDPTFSNESFTRHLREYIVPEILEAYVKGDVKVLKKWFSEAPFNVYAAQQKIFKEQDVYADGRILDIRGVEIVSAKLLAPQDIPVLVVGCRAQEINLYRKKKTGEIAAGDEANILMSSYAMVFTRDPEQIDDDETEGWKILEFVRGGSRQFT”, the protein production entry was “failed”.
With “MHRVGSAGSNGGSVRTRKEKKLTYVLNDANDTKHCAGINCLDVLKSSVSNDQSYLFTGSRDGTLKRWAFDEDATFCSATFESHVDWVNDAALAGESTLVSCSSDTTVKTWDGLSDGVCTRTLRQHSDYVTCLAVAAKNNNVVASGGLGGEVFIWDIEAALSPVTKPNDANEDSSSNGANGPVTSLRTVGSSNNISVQSSPSHGYTPTIAKGHKESVYALAMNDTGTMLVSGGTEKVLRVWDPRTGSKSMKLRGHTDNVRVLLLDSTGRFCLSGSSDSMIRLWDLGQQRCLHTYAVHTDSVWALACNPSFSHVYSGGRDQCLYLTDLATRESVLLCTKEHPIQQLALQDNSIWVATTDSSVERWPAEVQSPKTVFQRGGSFLAGNLSFNRARVSLEGLNPAPAYKEPSITVPGTHPIVQHEILNNKRQILTKDAAGSVKLWDITRGVVVEDYGKISFEEKKEELFEMVSIPSWFTVDTRLGCLSVHLETPQCFSAEMYSADLKVSGRPEDDKINLARETLKGLLGHWLAKKKHKPKPQVLASGDTLSVKDTKKNLSASKTEESSAASDPVYPPFEFSSVSPPSIITEGSQGGPWRKKITEFTGTEDEKDFPLWCLDAVLNNRLPPRENTKLSFFLHPCEGSSVQVVTLGKLSAPRILRVHKVTNYVVEKMVLDNPLDSLAIDAASVSGGQPQPLFSGNGLLQSGLKPWQKLRPSIEILCNSQVLSPDMSLATVRAYVWKKPEDLILNYRVAIAR”, the protein production entry is given as “failed”.
As to “MHSATIIIGIVCGWIFILTTVQFLYLLIIKRDLQPTGWCSFMEKDYLGISSTVLVSLLFGLALVLVNSWFNQPTVEEVVPRSTYLMVMIALFFIDTVAFIFMQLYFIYDRRQFSNCILSLAFLSCLIYFIKTVIIIQQIIEGRLTSSVVQNDIAIYYLFRQMSLCILIFLALVNKVSENTKQRNLFSKKMTLCISLFFVVGGPIVAHILSSHYESYNLHIAELTNENDQVVWKASYVTIMIFMWLTLLSVNLYFNGLRCDIWNGVTVIAFCAVLYNVSLLFMSRYSVSIWYISRTIEVVSKLTVMVIFMCHIFSALRVTKDIAHRDSLTNIFNRNYFFNELTVQSASAKKTPYCVMIMDIDHFKKVNDTWGHPVGDQVIKTVVSIIGKSIRPDDLFARVGGEEFGVLLTDIDTERAKALAERIRENVERLTGDNPEYAIPQKVTISIGAVVTQKNELNPKEIYQLADNALYEAKETGRNKVVVKEAEILINRKDDE”, the protein production entry was “failed”.
With “MHSDSGSDSGSDSGSGSPMVSSIHPSEPIQPMEHVLEEADARLLTEVGFLAAAVSDLTRADAIFNALQRVRPGRTHPCIGLAVARMNAGLPDEAAEILANFQPAQPEDRSELDAWCGFALLLAGRSDEARRMLQRAIDAGGEAARLAQVVLDSGPAMMRPAPLQSEPLPGAPG” the entry was “failed”.
The value for “MHSEHGRQNVKVELKGVHRVRRKLASGETAVYHYAWRGGPRIDAAPGSAEFVAAYNAAHAARDRPVHHDGTLQALITAYQKTPAFTDLAEATRKGYIRHIRQIEADFGDMPVQALADPRVRGEFLDWRDRLAQKSKRSADYAFSVLARILSWAHDRRKIPVNPCEKPGRLYTGSRADSIWTEAQIAAFLAVAPRPVRLPFLLAIWTGQRQADILQLTWTAYDGQAIRLRQSKTGRHMLIPVAQPLREAMEEAKARRRTLTICETSRGQPWTSDGFKTSFGKAQASAGIEGVTFHDLRGTAVTFLALAGCSVPEIAALTGHSLKDAEGILSKHYLGRDRRLGESAVAKLEKHGVGTPTVKRAVKRRGPEGGDSV” was “failed”; that for “MHSEMTVPGFETRLAKVQDVWRDNRCLKSSSIGQYLYWIHRFHHYCIAEALDADEQLTQAGVSLFAQWYARQRRVDAECACQGAQSALRAWALGLSTLGVEIPPWQCDTDRTSESEPRLQDFAEHLRQHRGNPEATIKKKLAHIRCFLAFIAARHRPLRHLKLTDIDAFLVDCSQRYARTTTADIGSSLRGYVRFLLVTGQVTADLAPSIVTPIVRHYEQPLRALPWDDVRHILAAIDRSSPIGLRDYALLLLMSTYGLGAGEVIRLTLDDIDWQAATLRVVRPKTGVAFVLPLLPALAQALADYLKHGRPRRAPSRHVFQSMRAPHYPLSESSAIRHILVGHARKAGVTAAYLGSHVLRHTHACRQVEQEISPKVLSDILGHRSPESLSAYVRIATERLRQLPLPVPE” was “failed”; that for “MHSGLDNSAELRVSDFDPITLAGGTRTEVLPGAIQPHAALLALAPADLTIVHAAGATASLLGAAAELLPGTAASTAFSSDQIARLQALATAERWIERPQHAFTLNAPDATPIDVIVHHASGLLVVELDPRREPAPENSLALVQSMIRRARPAPNLQGFCDAMAAELRSVTGFDRVMVYRFARDGSADVIAEARGPETSPFLGLRDPQPDISNQPGSISRIRVQPDVHAPAAPLWPAHSPRNGLALDLSFSATRSASPEHRLYLAQLGVAASLSLSLVVEGELWGLIVCHHATPRFLPYRMREACALFAEMASLQLETRLAADQLAARLRSTRIHEELVTRMSQESDLAEGLIRFYPNLLDFIPAAGVGLWIDGQFTGIGATPGPAQVAAMMGWLHGVPHDGVYHTDCLALAYPPAKAFAGCASGLLALSLSNTPHNYVLWFRPEVVRVVTWAGMPNKPVGVDAGAPRTPKGCASSWQESVRLHGEPWLDTDVDAAHRLRESLLDVVLRRIDGIARERRSAQLLQEQLMRQVELGLSRSKDVAKTLQEEKRRRVLVEADLSKVLRRTVEDQEAERLRIARELHDTLGQSLTLLQLGFDKLGQAAGDNPELQQRIAEMKSLTADVGRQANRLAWEIRPTALDDLGIQTAIQNLLDSWSEKSSIEFDLHMTLGSRRLPSPVETTLYRVLQEALTNVVRHASARHVSVILQLGDDQVTMIVEDDGCGFVTAGRKPPSGRLGLLGIRERLSLVGGSLEIESAPGKGTALYARIPL” was “failed”.
For the sequence “MHSQASNPSATPEPETPNAAGGKRSVFAVILGNAVEFFDFGVYATFAVMIGHTFFPSDSAFVSLMLSVTAFGVGFIVRPLGAVLIGAYADRVGRKPAMLLTLVMMAVGTGSIAILPSYESIGIAAPILLVLTRLIQGLAWGGEAGPATTYILEAAPAHKRGTYACWQVVAQGVAAMAAGTVGYTLTQVLSPEDLNSWGWRVPFVFGLLVLPIGIYIRRNLAETFHGQGETASTGSLVRQVFGEHRRALVLGLLILSGSTITQYFINYMTTFALTELKLPTSISMLSTLVAGAAMAVCAIAGGMLCDRFGRRTILMAPRVVLLLVLFPALQLMTEHPSPTTFLLTLAVLSGLHGMSGAALIVLLVESFPKAVRSTGFSIVYAFGVAAFGGTAQIIITWLIGTTGNPMSPVGYLLVANLVCLTAAWFAKETRPQAPGRSNPGQRLAEARAR”, the protein production entry is recorded as “failed”.
The value for “MHSSSRASFTTRGDIRRQVEGFSASGERNKDTVVDLSTFFAERGYSNNQAPTKYWEEKLVTIGNVVVPKWVPVKERNSSNKQKEGEDEVFIGFEAIYYPEQPPERQPITLYQEENKVEEEEQSRE” was “not failed”; that for “MHSVPSTGFPQSEFSGPFWTGRGVACARPNRYVWTARPSDQSSRRMSTSFSRRLRRLQSQKETALCVGLDPVPARFPPSLQDGRLRTDAVRAFCTTIVEATAPYACAFKPNFAFFEALGPAGLTVLDQVVTTIPDDCLVLGDAKRGDIGHSARHYAASIYEELGLDACTVSPYLGRDSVMPFLEHEGTCTFVLARTSNDGAADLQEACTCDGTPLYRHVARRVQAWNADAPGGAGLVVGATAPAALQDLRSLCPSLPFLVPGVGAQGGDAAAVMDAAATDEGPVLVNSSRSILYASEGPNYANAAADAARALRDALNGGASSSRGAPSPPALEHHHHHH” was “failed”; that for “MHTFKIDCQLHYRVIQMTEFVFQFEVAEHPWQTLIHESFQFKPDLAFEQYERDAGLNRLIRVNAPEGDLSVSYTAKVQTHIPERNTSLKECEIKDLPSDTLFYLAPSRFCESDLIDTMVTNTFAELPKGYSRVQAICDWIHDNIIYQSGSSDSTTTARDILVNRAGVCRDFAHLGIAICRALNIPARFVFGYMPFYQAQPDFHAIFEVYLENQWMLFDATRMGPIDQFVRVGTGLDAKDVPFATVYGEIELISMSPVIELV” was “failed”.
The value for “MHTNWQVCSLVVQAKSERISDISTQLNAFPGCEVAVSDAPSGQLIVVVEAEDSETLIQTIESVRNVEGVLAVSLVYHQQEEQGEETP” was “not failed”; that for “MHTQEALFVRLALDAWNTQSSRTDKLIQSLSNEALAVETAPGRNSGTYLLGHLTAVHDAMLPLLELGDTLYPQLAPVFIQNPDKSGLEKPEINDLRLYWSLVQERLANQFNQLQPADWFNKHAAISREDFLKEPHRNKLSVLINRTNHMAYHLGQLAYLKK” was “not failed”.
In the case of “MHVFYSEERRGNLLILREGEVKHFRVRRIEKDEEFGVIHEGKIYVCKVRREDKREISCEIVEELETKLPPKDITLYQSVTVDLKTMDTIVRQATELGVLTFVPIISERSFQKEEAILKKTEKWKRIVIEAMKQSRRPIPMEIKKPVRLSDLIPESEENIILDNFYEGVKPKDVNLEAKTYSVVVGPEGGFSKRESQILREKGFKSVLLEPYTLRTETAVVSIVSILMNF”, the protein production result was “not failed”.
The value for “MHVSKVFPSLRDTLPRDLMASVVVFLVALPLCMGIAIASGMPPAKGLLTGIVGGLVVGFLAGSPLQVSGPAAGLAVLVFELVRTYGVAMLGPILLLAGAIQLLAGRLRLGCWFRVTSPAVVYGMLAGIGILIVLSQLHVMLDLAPKASGLDNLLAFPQAAFAALGSLGMDSGLDAALLGLGTIAVMWGWDKLRPQRLRFLPGALLGVSLATLASLWLALDVRRVEVPANLGEAIVWLRPADLLALADPSLLLAAVVVAFIASAETLLSAAAVDRLHDGPRSDMDRELSAQGVGNMLCGLLGALPMTGVIVRSSANVNAGARTRASAIFHGLWLLAFVLLLGSLLRQIPVASLAGVLVYTGVKLVDFKALGNLSRYGRMPMLVYAATALAIVFTDLLTGVLVGFALTLLKLVLKAARLKIALRYTGEHEAELRLSGAATFLKVPALSRVLDEVKPGTTLHVPMDNLSYVDHACMELLEDWGRMAPVQGSRLVIEPRALKRRLEGRLRGSVGLGGARNGGAVSPG” was “failed”; that for “MIAAAWIAVTAALYAAARALHRRFPRPWLTPLLVVPGALAAVLLAARVPYPGYMRGGRLLVDLLGPATVAFALPLHRHAGLLRRHAAELCAGILAGCAVAVGSSFLLARALGLGRPLALSLAPRSITTPFAMQVAGDLGGVPALAAVFVILTAVVGLVVGQLLLRWLPLRSAVARGALFGMGAHAAGTAQAMELGRVEGAVAGVVMIVAGLGVLVATPLLRLAL” was “failed”; that for “MIAFQALQAISPIDGRYRNKVEVLSRYFSEGSLIRYRVKVEVEYFIALCNELPSLKDVCPPSLEEELRRIYQDFSEKDAVRVKEIEAVTNHDVKAVEYFLKERFEAMGIRDAKEFIHFGLTSQDVNNTAFPMMIREAMTEVYLPALQELVEQLHAYALQWKDVPMLAKTHGQPASPTRLGKEIEVFVYRLRKQIDLLLEVPHSAKFGGATGNFNAHHVAYPDHDWSDFGRRFVTSLGLEREELTTQISNYDNMAALFDACCRINVILIDLCRDFWQYISMEYFKQKIKAGEVGSSAMPHKVNPIDYENAEGNLGIANAIFEHLSRKLPISRLQRDLTDSTVLRNVGTPLAHSLIAVTSIAKGLGKLLLNEAALDRDLQNNYAVVAEAIQTILRREGYPNPYETLKALTRTNETVTAESIASFIEALDIDETVKEEMRRISPSNYVGI” was “failed”.
